Measurements: patent US20260209362A1 (VIB VZW, published 2026)

T1: biotinylated recombinant mouse IL-12Rβ2 (mouse, UniProt P97378 24-637, random biotinylated)
T1 construct: Recombinant protein produced in-house, biotinylated; also called mIL-12RB2; mouse IL-12RB2
T1 sequence: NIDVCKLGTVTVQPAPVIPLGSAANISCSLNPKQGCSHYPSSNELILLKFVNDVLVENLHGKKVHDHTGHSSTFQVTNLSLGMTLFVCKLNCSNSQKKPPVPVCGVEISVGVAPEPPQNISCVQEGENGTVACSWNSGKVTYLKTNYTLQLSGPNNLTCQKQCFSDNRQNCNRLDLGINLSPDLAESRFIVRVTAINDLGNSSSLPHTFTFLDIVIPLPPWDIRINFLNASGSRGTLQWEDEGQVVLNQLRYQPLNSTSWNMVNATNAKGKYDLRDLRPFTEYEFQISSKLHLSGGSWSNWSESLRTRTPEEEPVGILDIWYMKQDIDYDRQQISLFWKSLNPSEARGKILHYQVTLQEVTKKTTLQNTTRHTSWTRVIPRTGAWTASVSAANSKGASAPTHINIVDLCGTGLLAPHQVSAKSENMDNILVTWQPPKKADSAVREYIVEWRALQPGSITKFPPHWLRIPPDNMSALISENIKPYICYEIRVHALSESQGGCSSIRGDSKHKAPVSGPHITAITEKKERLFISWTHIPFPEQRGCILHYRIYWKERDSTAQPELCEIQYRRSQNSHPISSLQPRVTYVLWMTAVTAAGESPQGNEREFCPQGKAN

T2: biotinylated recombinant human IL-12Rβ2 (produced in-house) (human, UniProt Q99665 24-622, random biotinylated)
T2 construct: also called hIL-12RB2; hIL12RB2
T2 sequence: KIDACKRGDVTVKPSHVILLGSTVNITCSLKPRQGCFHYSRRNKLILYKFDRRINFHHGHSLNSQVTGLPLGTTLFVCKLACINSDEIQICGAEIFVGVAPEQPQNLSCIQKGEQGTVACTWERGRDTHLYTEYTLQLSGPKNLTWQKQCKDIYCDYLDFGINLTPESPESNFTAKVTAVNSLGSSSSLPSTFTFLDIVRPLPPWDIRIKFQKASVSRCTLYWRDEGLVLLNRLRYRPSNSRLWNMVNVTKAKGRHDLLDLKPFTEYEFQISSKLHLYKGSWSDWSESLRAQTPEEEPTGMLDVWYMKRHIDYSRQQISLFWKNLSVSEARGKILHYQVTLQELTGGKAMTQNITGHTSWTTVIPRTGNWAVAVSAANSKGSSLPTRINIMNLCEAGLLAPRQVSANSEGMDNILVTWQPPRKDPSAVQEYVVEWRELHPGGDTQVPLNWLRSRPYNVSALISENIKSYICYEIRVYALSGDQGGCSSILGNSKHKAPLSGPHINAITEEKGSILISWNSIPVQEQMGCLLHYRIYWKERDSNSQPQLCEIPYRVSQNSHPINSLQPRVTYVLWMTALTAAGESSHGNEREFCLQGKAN

T3: biotinylated recombinant mouse IL-12Rβ2 (produced in-house) (mouse, UniProt P97378 24-637, random biotinylated)
T3 construct: also called mIL-12RB2; mIL12RB2
T3 sequence: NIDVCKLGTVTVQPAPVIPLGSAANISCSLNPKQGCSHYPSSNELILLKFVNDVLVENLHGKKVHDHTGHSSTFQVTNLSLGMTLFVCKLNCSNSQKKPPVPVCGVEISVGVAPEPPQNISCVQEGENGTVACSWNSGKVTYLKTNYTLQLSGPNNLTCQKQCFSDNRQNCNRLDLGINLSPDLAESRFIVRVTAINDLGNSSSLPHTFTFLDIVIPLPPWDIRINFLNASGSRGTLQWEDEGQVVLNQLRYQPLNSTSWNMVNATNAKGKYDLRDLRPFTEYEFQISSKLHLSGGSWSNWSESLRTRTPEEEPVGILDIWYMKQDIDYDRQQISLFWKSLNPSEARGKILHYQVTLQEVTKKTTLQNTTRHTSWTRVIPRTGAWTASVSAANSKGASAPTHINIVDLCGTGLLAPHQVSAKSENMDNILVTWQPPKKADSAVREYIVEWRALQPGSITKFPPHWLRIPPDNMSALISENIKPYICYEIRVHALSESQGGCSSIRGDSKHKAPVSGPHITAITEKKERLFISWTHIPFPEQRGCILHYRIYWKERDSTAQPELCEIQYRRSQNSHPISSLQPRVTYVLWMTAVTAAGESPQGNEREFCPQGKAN

T4: mouse IL-12Rβ2 expressed on cells (mouse, UniProt P97378 24-874)
T4 construct: HEK293T cells, stably transduced (cDNA NM_008354); also called mIL-12RB2
T4 sequence: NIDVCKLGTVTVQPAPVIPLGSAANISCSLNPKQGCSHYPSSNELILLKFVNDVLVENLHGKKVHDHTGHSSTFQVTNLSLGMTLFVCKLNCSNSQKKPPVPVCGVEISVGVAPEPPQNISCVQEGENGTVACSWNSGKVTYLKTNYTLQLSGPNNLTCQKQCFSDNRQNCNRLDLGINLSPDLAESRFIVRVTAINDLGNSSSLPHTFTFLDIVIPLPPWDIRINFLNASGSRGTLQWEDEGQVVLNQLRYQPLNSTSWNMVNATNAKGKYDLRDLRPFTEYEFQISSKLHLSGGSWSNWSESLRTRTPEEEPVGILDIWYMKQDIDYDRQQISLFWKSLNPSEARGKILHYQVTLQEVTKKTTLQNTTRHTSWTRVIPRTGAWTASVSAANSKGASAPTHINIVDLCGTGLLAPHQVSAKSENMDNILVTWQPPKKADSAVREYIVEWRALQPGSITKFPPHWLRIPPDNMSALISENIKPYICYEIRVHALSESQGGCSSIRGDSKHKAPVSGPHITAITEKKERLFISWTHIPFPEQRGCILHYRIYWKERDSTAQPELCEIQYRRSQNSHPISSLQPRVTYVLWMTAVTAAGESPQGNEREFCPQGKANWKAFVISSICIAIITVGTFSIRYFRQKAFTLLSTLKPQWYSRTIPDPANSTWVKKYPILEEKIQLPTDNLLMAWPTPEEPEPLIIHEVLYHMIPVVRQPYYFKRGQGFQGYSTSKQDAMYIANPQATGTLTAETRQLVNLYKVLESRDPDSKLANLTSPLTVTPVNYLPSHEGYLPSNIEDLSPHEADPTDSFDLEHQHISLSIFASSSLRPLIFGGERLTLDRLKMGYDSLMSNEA

T5: biotinylated recombinant human IL-12Rβ2 (human, UniProt Q99665 24-622, random biotinylated)
T5 construct: Recombinant protein produced in-house; also called hIL-12RB2; human IL-12RB2
T5 sequence: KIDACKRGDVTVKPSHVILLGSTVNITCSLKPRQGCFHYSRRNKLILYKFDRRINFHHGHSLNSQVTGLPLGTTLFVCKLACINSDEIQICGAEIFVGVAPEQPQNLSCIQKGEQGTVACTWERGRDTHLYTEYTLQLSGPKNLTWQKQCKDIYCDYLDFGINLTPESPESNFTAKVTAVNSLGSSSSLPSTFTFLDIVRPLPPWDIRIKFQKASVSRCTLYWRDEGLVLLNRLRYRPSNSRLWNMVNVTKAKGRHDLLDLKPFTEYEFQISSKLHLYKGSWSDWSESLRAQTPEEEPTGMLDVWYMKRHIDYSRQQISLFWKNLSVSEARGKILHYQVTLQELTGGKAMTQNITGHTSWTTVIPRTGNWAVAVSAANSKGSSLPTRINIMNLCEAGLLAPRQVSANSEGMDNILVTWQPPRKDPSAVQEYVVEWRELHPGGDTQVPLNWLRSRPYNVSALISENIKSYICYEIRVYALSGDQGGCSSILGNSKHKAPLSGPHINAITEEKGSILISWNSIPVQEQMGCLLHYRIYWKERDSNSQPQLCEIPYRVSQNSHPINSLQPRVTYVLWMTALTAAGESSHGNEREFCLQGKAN


Columns and labels:
[1] = target: T1, biotinylated recombinant mouse IL-12Rβ2; test: ELISA, periplasmic extract on biotinylated mIL-12Rβ2, signal over control wells
[2] = target: biotinylated recombinant human IL-12Rβ2 (human) (UniProt Q99665); test: ELISA, periplasmic extract on biotinylated hIL-12Rβ2, signal over control wells
[3] = target: T2, biotinylated recombinant human IL-12Rβ2 …; test: ELISA, P.E. VHH on biotinylated hIL-12RB2, signal ratio to control well
[4] = target: T2, biotinylated recombinant human IL-12Rβ2 …; test: ELISA, P.E. VHH on biotinylated hIL-12RB2
[5] = target: T3, biotinylated recombinant mouse IL-12Rβ2 …; test: ELISA, P.E. VHH on biotinylated mIL-12RB2, signal ratio to control well
[6] = target: T4, mouse IL-12Rβ2 expressed on cells; test: flow cytometry, P.E. VHH on HEK293T cells expressing mIL-12RB2
[7] = target: T4, mouse IL-12Rβ2 expressed on cells; test: flow cytometry, P.E. VHH on HEK293T cells stably expressing mIL-12RB2
[8] = target: T5, biotinylated recombinant human IL-12Rβ2; test: BLI, P.E., off-rate ranking
[9] = target: T5, biotinylated recombinant human IL-12Rβ2; test: ELISA, P.E., biotinylated antigen
[10] = target: biotinylated recombinant mouse IL-12Rβ2 (mouse) (UniProt P97378); test: ELISA, P.E., biotinylated antigen

Row | ELISA binding mIL-12RB2/control [1] [ratio] | ELISA binding hIL-12RB2/control [2] | ELISA hIL12RB2/control [3] | binding result [4] | ELISA mIL12RB2/control [5] | % cells bound [6] [%] | dMFI [6] | % cells bound [7] [%] | dMFI [7] | Response [8] | koff [8] [s⁻¹] | ELISA hIL-12RB2/control [9] | ELISA mIL-12RB2/control [10] | Binder
1 | 18 | 2.18 | – | – | – | – | – | – | – | – | – | – | – | anti-IL-12Rβ2 VHH clone 20450 (VHH, not shown: small tags and cut ends, tested as periplasmic extract; also called 2CRM61) VHH: QVQLQESGGGLVQPGGSLRLSCAASGFTISNYAMSWVRQAPGKGLEWVSSIGSNIASTNYADSVKGRFTISRDNAKNTLYLQMNSLKPEDTAVYYCAKASQNHSPPGQGTQVTVSS
2 | 16.6 | 2.43 | – | – | – | – | – | – | – | – | – | – | – | anti-IL-12Rβ2 VHH clone 20460 (VHH, not shown: small tags and cut ends, tested as periplasmic extract; also called 3CRM63) VHH: QVQLQESGGGLVQAGGSLRLSCAASGFTLGSYAMSWVRQAPGKGLEWVSSISSSGTNTNYADSVKGRFTISRDNAKNTLYLQMNSLKPEDTAVYYCAKASQNHSPPGQGTPVTVSS
3 | – | – | 0.97 | no binding | 5.41 | 60.9 | 342 | 60.9 | 342 | – | – | – | – | anti-IL-12Rβ2 VHH clone 2CAMS52 (VHH, not shown: small tags and cut ends, tested as periplasmic extract; also called 20535; 2CAMSSZ) VHH: QVQLQESGGGLVQPGASLRLSCATSGPTLSTYAMGWFRQAPGKEREVVATISWSGGRVTYVDSVKGRFTISRDNAKNTAYLQMNRLRPDDTAVYTCAARESDYGAYDYWGQGTQVTVSS
4 | – | – | – | – | – | – | – | – | – | 0.53 | 0.00446 | 9.8 | 2.85 | anti-IL-12Rβ2 VHH clone 3CRH17 (clone ID 20376) (VHH, not shown: small tags and cut ends, periplasmic extract) VHH: QVQLQESGGGLVQAGGSLVLSCAASGSAALIFLMSWYRQAPGKQRELVAEVSRYGSTTYADSVEGRFTISRDNAKNIVDLQMNSLKPEDTAVYYCKADQYYGDSLRSSWGRGTQVTVSS
5 | – | – | – | – | – | – | – | – | – | 0.617 | 0.00495 | 10 | 2.11 | anti-IL-12Rβ2 VHH clone 3CRH67 (clone ID 20387) (VHH, not shown: small tags and cut ends, periplasmic extract) VHH: QVQLQESGGGLVQAGGSLVLSCAASGSAALIFLMSWYRQAPGKQRELVAEVSRYGSTTYADSVEGRFTISRDNAKNIVDLQMNSLKPEDTAAYYCKADQYYGDSLRSSWGRGTQVTVSS
6 | – | – | 1.31 | no binding | 47.4 | 62.2 | 351 | 62.2 | 351 | – | – | – | – | anti-IL-12Rβ2 VHH clone 3CAM57 (VHH, not shown: small tags and cut ends, tested as periplasmic extract; also called 20512; 3CAMS7) VHH: QVQLQESGGGLVQAGGSLRLSCTPSGRTFSTLAMGWFRQAPGKEREVVATISWSGGRTYYASSVKSRFTISRDNAKNTAYLQMNSLRPDDTAVYYCAARGTDYGAYDYWGQGTQVTVSS
7 | – | – | 1.25 | no binding | 5.98 | 57.9 | 315 | 57.9 | 315 | – | – | – | – | anti-IL-12Rβ2 VHH clone 3CAM65 (VHH, not shown: small tags and cut ends, tested as periplasmic extract; also called 20513) VHH: QVQLQESGGGLVQAGGSLRLSCAPSGRTFTTYVMGWFRQAPGKEREFVAHISWSGGRTYYADSVKGRFTISRDNAKNTSYLQMNSLKPEDTAVYYCAAARSDAVRIGYAEGYEYWGQGTQVTVSS
8 | – | – | 1.2 | no binding | 3.3 | 63 | 376 | 63 | 376 | – | – | – | – | anti-IL-12Rβ2 VHH clone 3CAM1 (VHH, not shown: small tags and cut ends, tested as periplasmic extract) VHH: QVQLQESGGGLVQAGGSLRLSCAASGRTFGSHRMGWFRQAPGQEREFVAAIAWRGGTQYYTDSVKGRFTISRDNANNTVYLQMNSLKPEDAAVYYCVAGEGSSWGDITDPRRYVFWGQGTQVTVSS
